Test results reported in patent publication US20250340613A1 (JOINT STOCK COMPANY BIOCAD, published 2025).

T1: C-Avi-His-TEVs-HSA_hBCMA, Tumor necrosis factor receptor superfamily member 17 (Homo sapiens) aa 1-54 (Homo sapiens, UniProt Q02223 1-54)
T1 construct: range 1-54; not shown: Avi, His, TEV site and HSA parts as the name implies
T1 sequence (looked up): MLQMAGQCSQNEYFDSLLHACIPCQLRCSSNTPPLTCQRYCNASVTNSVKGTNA

T2: hIL4R-His, Interleukin-4 receptor subunit alpha (Homo sapiens) aa 27-227 (Homo sapiens, UniProt P24394 27-227)
T2 construct: range 27-227; not shown: His tag as the name implies
T2 sequence (looked up): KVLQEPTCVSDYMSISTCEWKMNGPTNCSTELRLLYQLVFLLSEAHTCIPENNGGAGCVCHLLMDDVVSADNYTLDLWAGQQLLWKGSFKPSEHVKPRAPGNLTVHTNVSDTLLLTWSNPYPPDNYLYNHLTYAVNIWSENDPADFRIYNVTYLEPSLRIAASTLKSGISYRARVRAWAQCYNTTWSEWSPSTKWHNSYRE

T3: hCD38-Avi, ADP-ribosyl cyclase/cyclic ADP-ribose hydrolase 1 (Homo sapiens) aa 43-300 (Homo sapiens, UniProt P28907 43-300)
T3 construct: range 43-300; not shown: Avi tag as the name implies
T3 sequence (looked up): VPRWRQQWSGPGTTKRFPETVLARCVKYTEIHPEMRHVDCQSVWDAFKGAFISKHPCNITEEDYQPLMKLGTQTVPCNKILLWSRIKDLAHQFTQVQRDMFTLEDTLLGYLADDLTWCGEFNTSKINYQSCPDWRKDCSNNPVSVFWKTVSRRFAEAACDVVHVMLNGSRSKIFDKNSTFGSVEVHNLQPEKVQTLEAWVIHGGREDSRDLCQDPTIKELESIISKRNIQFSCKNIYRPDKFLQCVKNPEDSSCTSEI

T4: IL5R-His, Interleukin-5 receptor subunit alpha (Homo sapiens) aa 22-342 (Homo sapiens, UniProt Q01344 22-342)
T4 construct: not shown: His tag as the name implies
T4 sequence (looked up): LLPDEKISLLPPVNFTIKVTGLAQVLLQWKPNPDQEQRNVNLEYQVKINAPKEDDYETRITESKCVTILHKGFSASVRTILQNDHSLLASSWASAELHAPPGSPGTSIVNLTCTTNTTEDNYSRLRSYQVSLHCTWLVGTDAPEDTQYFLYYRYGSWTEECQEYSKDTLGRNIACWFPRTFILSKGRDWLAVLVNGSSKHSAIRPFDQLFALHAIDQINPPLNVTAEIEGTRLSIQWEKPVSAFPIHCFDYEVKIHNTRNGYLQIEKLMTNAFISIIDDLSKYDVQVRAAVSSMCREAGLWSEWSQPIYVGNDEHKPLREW

T5: hisOX40, Tumor necrosis factor receptor superfamily member 4 (Homo sapiens) aa 26-210 (Homo sapiens, UniProt P43489 26-210)
T5 construct: range 26-210; The tag is put first only because the name begins with His; not shown: His tag as the name implies
T5 sequence (looked up): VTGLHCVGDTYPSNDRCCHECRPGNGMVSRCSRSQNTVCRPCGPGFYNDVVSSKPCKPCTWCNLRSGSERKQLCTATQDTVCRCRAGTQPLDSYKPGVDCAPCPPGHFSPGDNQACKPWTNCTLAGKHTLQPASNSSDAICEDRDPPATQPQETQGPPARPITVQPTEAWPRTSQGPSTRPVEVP


How the values were obtained:
[1] = molecular target: T6, Her3-H6F, Receptor tyrosine-protein kinase erbB-3 (Homo sapiens) aa 21-643 (Homo sapiens, UniProt P21860 21-643); assay: BLI Octet RED 384; antibody on ProA sensor, antigen 30 ug/ml (420.8 nM); response at end of association
T6 construct: not shown: His and FLAG tags implied by the name 'H6F'
T6 sequence (P21860 21-643 limits assumed): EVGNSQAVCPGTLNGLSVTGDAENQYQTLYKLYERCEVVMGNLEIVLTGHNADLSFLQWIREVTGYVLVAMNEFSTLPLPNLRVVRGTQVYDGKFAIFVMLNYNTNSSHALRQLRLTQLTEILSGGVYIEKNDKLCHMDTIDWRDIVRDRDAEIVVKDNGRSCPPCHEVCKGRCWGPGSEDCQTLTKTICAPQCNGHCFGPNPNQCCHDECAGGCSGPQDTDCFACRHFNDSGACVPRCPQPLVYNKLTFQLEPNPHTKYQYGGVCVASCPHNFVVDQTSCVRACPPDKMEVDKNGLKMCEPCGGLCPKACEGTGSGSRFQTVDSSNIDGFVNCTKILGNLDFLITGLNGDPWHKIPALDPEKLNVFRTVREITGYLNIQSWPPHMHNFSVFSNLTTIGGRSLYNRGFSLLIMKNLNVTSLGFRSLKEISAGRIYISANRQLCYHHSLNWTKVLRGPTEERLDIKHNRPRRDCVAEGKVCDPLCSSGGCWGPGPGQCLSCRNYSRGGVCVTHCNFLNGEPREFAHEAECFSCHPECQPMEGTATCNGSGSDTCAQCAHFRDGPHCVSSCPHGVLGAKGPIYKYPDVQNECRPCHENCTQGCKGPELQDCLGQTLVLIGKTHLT
Protocol: (§1) Experimental study of nonspecific binding of bispecific chimeric antibodies to non-target antigens was performed on Forte Bio Octert RED 384. Protein A (ProA) biosensors (ForteBio) were immersed into a solution containing antibodies at a concentration of 10 μg/ml for 150 seconds to immobilize same. The baseline was recorded in a 1×KB solution for 30 seconds. The antibody-loaded sensors were then immersed into wells containing non-target antigens at a concentration of 30 μg/ml for 150 seconds. Complex dissociation was then recorded for 30 seconds.
(§2) The reference sensors went through all the steps as the sensors used to record analyte sensograms did, with the exception of the association step—at the association step, the sensors were immersed in a kinetic buffer solution without analyte (the reference sensor signals were measured in parallel with the recording of the main sensograms). The reference signal was subtracted from the signal received on sensors interacting with the analyte during the processing of sensograms.
(§3) Sensograms were processed using ForteBio Octet Data Analysisn 9.0 software. To report no non-specific interaction, the recorded signal level was checked at the end of the association step (the response parameter).

[2] = molecular target: T1, C-Avi-His-TEVs-HSA_hBCMA, Tumor …; assay: BLI Octet RED 384; antibody on ProA sensor, antigen 30 ug/ml (391.2 nM); response at end of association
Protocol: as §1, §2, §3

[3] = molecular target: T2, hIL4R-His, Interleukin-4 receptor …; assay: BLI Octet RED 384; antibody on ProA sensor, antigen 30 ug/ml (1154 nM); response at end of association
Protocol: as §1, §2, §3

[4] = molecular target: T7, Macaca CSF1R_C-His, Macrophage colony-stimulating factor 1 receptor (Macaca mulatta) aa 20-513 (Macaca mulatta); assay: BLI Octet RED 384; antibody on ProA sensor, antigen 30 ug/ml (534.8 nM); response at end of association
T7 construct: range 20-513
Protocol: as §1, §2, §3

[5] = molecular target: T3, hCD38-Avi, ADP-ribosyl cyclase/cyclic …; assay: BLI Octet RED 384; antibody on ProA sensor, antigen 30 ug/ml (854.7 nM); response at end of association
Protocol: as §1, §2, §3

[6] = molecular target: T4, IL5R-His, Interleukin-5 receptor …; assay: BLI Octet RED 384; antibody on ProA sensor, antigen 30 ug/ml (757.6 nM); response at end of association
Protocol: as §1, §2, §3

[7] = molecular target: T8, extracellular domain of the human PD-1 protein (hPD1ex-H6F) (Homo sapiens, UniProt Q15116 21-170); assay: BLI Octet RED 384; antibody on ProA sensor, antigen 30 ug/ml (1456 nM); response at end of association
T8 construct: Molecular weight 20.6 kDa; made in CHO cells; also called hPDlex-H6F; not shown: C-terminal His and FLAG tags
T8 sequence (Q15116 21-170 limits assumed, form in doubt): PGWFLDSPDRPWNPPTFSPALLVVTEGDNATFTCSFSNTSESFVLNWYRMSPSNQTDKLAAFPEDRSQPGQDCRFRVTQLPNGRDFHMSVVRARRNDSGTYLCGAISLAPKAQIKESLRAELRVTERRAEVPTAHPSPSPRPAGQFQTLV
Protocol: as §1, §2, §3

[8] = molecular target: T5, hisOX40, Tumor necrosis factor receptor …; assay: BLI Octet RED 384; antibody on ProA sensor, antigen 30 ug/ml (1310 nM); response at end of association
Protocol: as §1, §2, §3

Binder	Signal level (nm) [1]	Signal level (nm) [2]	Signal level (nm) [3]	Signal level (nm) [4]	Signal level (nm) [5]	Signal level (nm) [6]	Signal level (nm) [7]	Signal level (nm) [8]
02-005, bivalent bispecific chimeric antibody that specifically binds to PD1 and CD20 (bispecific antibody, human IgG1, kappa, L234A L235A, Produced in CHO cells) heavy 1: EVQLVESGGGLVQPGGSLRLSCAASGYTFTSYNMHWVRQAPGKGLEWVGAIYPGNGDTSYNQKFKGRFTISVDKSKNTLYLQMNSLRAEDTAVYYCARVVYYSNSYWYFDVWGQGTLVTVSSASTKGPSVFPLAPSSKSTSGGTAALGCLVKDYFPEPVTVSWNSGALTSGVHTFPAVLQSSGLYSLSSVVTVPSSSLGTQTYICNVNHKPSNTKVDKRVEPKSCDKTHTCPPCPAPEAAGGPSVFLFPPKPKDTLYITREPEVTCVVVDVSHEDPEVKFNWYVDGVEVHNAKTKPREEQYNSTYRVVSVLTVLHQDWLNGKEYKCKVSNKALPAPIEKTISKAKGQPREPQVCTLPPSRDELTKNQVSLSCAVKGFYPSDIAVEWESNGQPENNYKTTPPVLDSDGSFFLVSKLTVDKSRWQQGNVFSCSVMHEALHNHYTQKSLSLSPGK light 1: DIQMTQSPSSLSASVGDRVTITCRASSSVSYMHWYQQKPGKAPKPLIYAPSNLASGVPSRFSGSGSGTDFTLTISSLQPEDFATYYCQQWSFNPPTFGQGTKVEIKRTVAAPSVFIFPPSDEQLKSGTASVVCLLNNFYPREAKVQWKVDNALQSGNSQESVTEQDSKDSTYSLSSTLTLSKADYEKHKVYACEVTHQGLSSPVTKSFNRGEC heavy 2: not shown light 2: QPVLTQPLSVSVALGQTARITCGGNNIGSKNVHWYQQKPGQAPVLVIYRDSNRPSGIPERFSGSNSGNTATLTISRAQAGDEADYYCQVWDSSTAVFGTGTKLTVLQQRQVKPEAWLSSGPSPGPGRLQLVCHVSGFYPKPVWVMWMRGEQEQQGTQLGDILPNANWTWYLRATLDVADGEAAGLSCRVKHSSLEGQDIILYWRGSC	-0.0128 nm	0.0021 nm	-0.0057 nm	-0.0084 nm	0.0072 nm	0.0225 nm	0.139 nm	-0.0169 nm
02-004, bivalent bispecific chimeric antibody that specifically binds to PD1 and CD20 (bispecific antibody, human IgG1, kappa, L234A L235A, Produced in CHO cells) heavy 1: QVQLVQSGGGLVQPGGSLRLSCAASGFTFSSYWMYWVRQVPGKGLEWVSAIDTGGGRTYYADSVKGRFAISRVNAKNTMYLQMNSLRAEDTAVYYCARDEGGGTGWGVLKDWPYGLDAWGQGTLVTVSSASTKGPSVFPLAPSSKSTSGGTAALGCLVKDYFPEPVTVSWNSGALTSGVHTFPAVLQSSGLYSLSSVVTVPSSSLGTQTYICNVNHKPSNTKVDKRVEPKSCDKTHTCPPCPAPEAAGGPSVFLFPPKPKDTLYITREPEVTCVVVDVSHEDPEVKFNWYVDGVEVHNAKTKPREEQYNSTYRVVSVLTVLHQDWLNGKEYKCKVSNKALPAPIEKTISKAKGQPREPQVCTLPPSRDELTKNQVSLSCAVKGFYPSDIAVEWESNGQPENNYKTTPPVLDSDGSFFLVSKLTVDKSRWQQGNVFSCSVMHEALHNHYTQKSLSLSPGK light 1: QPVLTQPLSVSVALGQTARITCGGNNIGSKNVHWYQQKPGQAPVLVIYRDSNRPSGIPERFSGSNSGNTATLTISRAQAGDEADYYCQVWDSSTAVFGTGTKLTVLQRTVAAPSVFIFPPSDEQLKSGTASVVCLLNNFYPREAKVQWKVDNALQSGNSQESVTEQDSKDSTYSLSSTLTLSKADYEKHKVYACEVTHQGLSSPVTKSFNRGEC heavy 2: not shown light 2: DIQMTQSPSSLSASVGDRVTITCRASSSVSYMHWYQQKPGKAPKPLIYAPSNLASGVPSRFSGSGSGTDFTLTISSLQPEDFATYYCQQWSFNPPTFGQGTKVEIKQRQVKPEAWLSSGPSPGPGRLQLVCHVSGFYPKPVWVMWMRGEQEQQGTQLGDILPNANWTWYLRATLDVADGEAAGLSCRVKHSSLEGQDIILYWRGSC	0.0217 nm	0.0108 nm	0.0102 nm	0.0236 nm	0.004 nm	0.0249 nm	0.35 nm	0.0103 nm
